Experimental data published in the supplement of paper PMC7877785.
± gives the uncertainty stated by the source.

Experiment: self-splicing fitness, log relative to wild type (ln ratio); higher = more splicing; Tetrahymena group I intron in knt gene, E. coli kanamycin selection, DiMSum; sequences stand for … in CUCUCU…GGAGGGAAAAGUUAUCAGGCAUGCACCUGGUAGCUAGUCUUUAAACCAAUAGAUUGCAUCGGUUUAAAAGGCAAGACCGUCAAAUUGCGGGAAAGGGGUCAACAGCCGUUCAGUACCAAGUCUCAGGGGAAACUUUGAGAUGGCCUUGCAAAGGGUAUGGUAAUAAGCUGACGGACAUGGUCCUAACCACGCAGCCAAGUCCUAAGUCAACAGAUCUUCUGUUGAUAUGGAUGCAGUUCACAGACUAAAUGUCGGUCGGGGAAGAUGUAUUCUUCUCAUAAGAUAUAGUCGGACCUCUCCUUAAUGGGAGCUAGCGGAUGAAGUGAUGCAACACUGGAGCCGCUGGGAACUAAUUUGUAUGCGAAAGUAUAUUGAUUAGUUUUGGAGUACUCGUGGUCG
Procedure, shortened: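 Library with all eight P1ex-region intron nucleotides randomised, intron inside the knt kanamycin-resistance gene on pET-22b(+), in E. coli BL21(DE3). Cells grew overnight at 37°C or 30°C on LB agar with or without 25 μg/mL kanamycin (plus 100 μg/mL carbenicillin, 50 μM IPTG, 0.2% rhamnose), in six replicate transformations. Pooled colonies were amplicon-sequenced on Illumina HiSeq 2500. DiMSum fitness is the error-weighted combination of wild-type-normalised replicate fold changes, kanamycin versus none.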

| Sequence | self-splicing fitness (ln) (30 °C) | self-splicing fitness (ln) (37 °C) |
| --- | --- | --- |
| CCAAAGCAAUAUUACGCAUA | -3.42 ± 0.15 | -2.38 ± 0.17 |
| CCAAAGCAAUAUUACGCGAC | -4.37 ± 0.27 | -2.87 ± 0.21 |
| CCAAAGCAAUAUUACGCGCG | -1.59 ± 0.075 | -0.994 ± 0.1 |
| CCAAAGCAAUAUUACGCGGC | -3.34 ± 0.18 | -3.15 ± 0.32 |
| CCAAAGCAAUAUUACGCGUC | -3.17 ± 0.21 | -2.98 ± 0.34 |
| CCAAAGCAAUAUUACGGAGG | -3.79 ± 0.25 | -2.04 ± 0.21 |
| CCAAAGCAAUAUUACGGAUU | -3.94 ± 0.25 | -3.55 ± 0.35 |
| CCAAAGCAAUAUUACGGCAG | -0.931 ± 0.074 | -0.49 ± 0.11 |
| CCAAAGCAAUAUUACGGCUC | -3.44 ± 0.29 | -2.32 ± 0.25 |
| CCAAAGCAAUAUUACGGGUA | -2.96 ± 0.24 | -3.34 ± 0.43 |
| CCAAAGCAAUAUUACGGUAC | -3.5 ± 0.24 | -3.13 ± 0.29 |
| CCAAAGCAAUAUUACGGUGU | -3.74 ± 0.19 | -2.97 ± 0.15 |
| CCAAAGCAAUAUUACGUACU | -3.69 ± 0.2 | -2.76 ± 0.27 |
| CCAAAGCAAUAUUACGUAUC | -1.28 ± 0.11 | -2.76 ± 0.24 |
| CCAAAGCAAUAUUACGUCAA | -3.22 ± 0.14 | -2.02 ± 0.13 |
| CCAAAGCAAUAUUACGUGGA | -3.55 ± 0.15 | -2.81 ± 0.21 |
| CCACAGCAAUAUUACGAACU | -2.98 ± 0.17 | -3.23 ± 0.32 |
| CCACAGCAAUAUUACGACCC | -4.02 ± 0.39 | – |
| CCACAGCAAUAUUACGACGA | -3.12 ± 0.19 | -2.09 ± 0.16 |
| CCACAGCAAUAUUACGAGAA | -2.74 ± 0.26 | -3.69 ± 0.39 |
| CCACAGCAAUAUUACGAUCG | -0.326 ± 0.06 | 0.703 ± 0.077 |
| CCACAGCAAUAUUACGAUUC | -3.17 ± 0.11 | -2.23 ± 0.14 |
| CCACAGCAAUAUUACGCAGA | -3.08 ± 0.17 | -2.89 ± 0.16 |
| CCACAGCAAUAUUACGCAUC | -3.23 ± 0.19 | -2.31 ± 0.2 |
| CCACAGCAAUAUUACGCUAA | -3.8 ± 0.22 | -1.62 ± 0.15 |

| Sequence | self-splicing fitness (ln) (30 °C) | self-splicing fitness (ln) (37 °C) |
| --- | --- | --- |
| CCACAGCAAUAUUACGCUAG | -3.27 ± 0.12 | -1.36 ± 0.1 |
| CCACAGCAAUAUUACGCUUA | -3.43 ± 0.16 | -2.98 ± 0.18 |
| CCACAGCAAUAUUACGCUUC | -3.25 ± 0.47 | – |
| CCACAGCAAUAUUACGGCGC | -3.56 ± 0.16 | -2.17 ± 0.13 |
| CCACAGCAAUAUUACGGCUU | -3.62 ± 0.14 | -2.71 ± 0.18 |
| CCACAGCAAUAUUACGGGCC | -4.14 ± 0.25 | -2.5 ± 0.18 |
| CCACAGCAAUAUUACGGUGG | -4.51 ± 0.17 | -2.28 ± 0.11 |
| CCACAGCAAUAUUACGUCCA | -3.23 ± 0.19 | -1.59 ± 0.15 |
| CCACAGCAAUAUUACGUCUC | -3.01 ± 0.17 | -2.66 ± 0.16 |
| CCACAGCAAUAUUACGUGAG | -0.847 ± 0.051 | -0.739 ± 0.065 |
| CCACAGCAAUAUUACGUGGC | -3.84 ± 0.12 | -2.86 ± 0.12 |
| CCACAGCAAUAUUACGUUCA | -3.27 ± 0.16 | -2.5 ± 0.19 |
| CCACAGCAAUAUUACGUUCU | -2.77 ± 0.1 | -3.7 ± 0.19 |
| CCAGAGCAAUAUUACGACCG | -0.53 ± 0.14 | -0.622 ± 0.22 |
| CCAGAGCAAUAUUACGACGG | -2.88 ± 0.18 | -2.02 ± 0.28 |
| CCAGAGCAAUAUUACGACUG | -1.05 ± 0.1 | -0.605 ± 0.15 |
| CCAGAGCAAUAUUACGACUU | -3.55 ± 0.17 | -2.61 ± 0.23 |
| CCAGAGCAAUAUUACGAGGA | -2.96 ± 0.23 | -2.46 ± 0.27 |
| CCAGAGCAAUAUUACGAGUG | -1.2 ± 0.073 | -0.146 ± 0.092 |
| CCAGAGCAAUAUUACGCAAA | -2.79 ± 0.48 | -1.57 ± 0.33 |
| CCAGAGCAAUAUUACGCAAC | -4.18 ± 0.24 | -2.94 ± 0.12 |
| CCAGAGCAAUAUUACGCAGG | -3.56 ± 0.15 | -2.53 ± 0.17 |
| CCAGAGCAAUAUUACGCAUG | -2.64 ± 0.16 | -1.59 ± 0.16 |
| CCAGAGCAAUAUUACGCGCG | -1.19 ± 0.1 | -0.59 ± 0.14 |
| CCAGAGCAAUAUUACGGAUG | -2.56 ± 0.15 | -1.3 ± 0.18 |

| Sequence | self-splicing fitness (ln) (30 °C) | self-splicing fitness (ln) (37 °C) |
| --- | --- | --- |
| CCAGAGCAAUAUUACGGCGA | -3.16 ± 0.26 | -2.65 ± 0.29 |
| CCAGAGCAAUAUUACGGCUG | -1.9 ± 0.083 | -1 ± 0.12 |
| CCAGAGCAAUAUUACGGGCU | -3.24 ± 0.3 | – |
| CCAGAGCAAUAUUACGGGGU | -2.35 ± 0.43 | -2.78 ± 0.34 |
| CCAGAGCAAUAUUACGUAGC | -3.23 ± 0.19 | -2.38 ± 0.26 |
| CCAGAGCAAUAUUACGUCAC | -2.34 ± 0.3 | – |
| CCAGAGCAAUAUUACGUCCA | -2.05 ± 0.33 | -1.44 ± 0.35 |
| CCAGAGCAAUAUUACGUCCG | -1.7 ± 0.12 | 0.0963 ± 0.14 |
| CCAGAGCAAUAUUACGUGGA | -4.15 ± 0.23 | -2.03 ± 0.16 |
| CCAGAGCAAUAUUACGUUAC | -3.64 ± 0.46 | -1.7 ± 0.34 |
| CCAGAGCAAUAUUACGUUUC | -3.23 ± 0.22 | -3.61 ± 0.31 |
| CCAGAGCAAUAUUACGUUUU | -3.06 ± 0.18 | -2.62 ± 0.21 |
| CCAUAGCAAUAUUACGAACG | -0.593 ± 0.09 | -0.0842 ± 0.11 |
| CCAUAGCAAUAUUACGACAC | -2.94 ± 0.29 | -1.99 ± 0.37 |
| CCAUAGCAAUAUUACGAUGA | -0.628 ± 0.092 | -0.23 ± 0.1 |
| CCAUAGCAAUAUUACGCAAA | -1.93 ± 0.21 | -2.15 ± 0.3 |
| CCAUAGCAAUAUUACGCACC | -1 ± 0.34 | – |
| CCAUAGCAAUAUUACGCCCU | -2.8 ± 0.29 | -2.84 ± 0.39 |
| CCAUAGCAAUAUUACGCGAG | -2.77 ± 0.16 | -1.22 ± 0.13 |
| CCAUAGCAAUAUUACGCUAC | -4.24 ± 0.28 | -3.23 ± 0.32 |
| CCAUAGCAAUAUUACGGCUG | -3.05 ± 0.15 | -1.62 ± 0.14 |
| CCAUAGCAAUAUUACGGGGC | -2.41 ± 0.15 | -2.95 ± 0.29 |
| CCAUAGCAAUAUUACGGGGU | -3.73 ± 0.18 | -2.46 ± 0.17 |
| CCAUAGCAAUAUUACGGGUA | -3.25 ± 0.27 | -2.87 ± 0.27 |
| CCAUAGCAAUAUUACGGUAU | -3.54 ± 0.24 | -1.34 ± 0.19 |

| Sequence | self-splicing fitness (ln) (30 °C) | self-splicing fitness (ln) (37 °C) |
| --- | --- | --- |
| CCAUAGCAAUAUUACGGUUA | -3.57 ± 0.29 | -2.73 ± 0.21 |
| CCAUAGCAAUAUUACGUAAU | -3.14 ± 0.15 | -3.15 ± 0.23 |
| CCAUAGCAAUAUUACGUAGC | -2.52 ± 0.21 | -2.05 ± 0.47 |
| CCAUAGCAAUAUUACGUCUU | -3.12 ± 0.15 | -2.56 ± 0.17 |
| CCAUAGCAAUAUUACGUGUG | -2.23 ± 0.09 | -1.07 ± 0.08 |
| CCCAAGCAAUAUUACGAGAG | -2.99 ± 0.079 | -1.93 ± 0.079 |
| CCCAAGCAAUAUUACGAGUG | -2.61 ± 0.16 | -2.94 ± 0.17 |
| CCCAAGCAAUAUUACGAUCA | -3.67 ± 0.26 | -2.57 ± 0.16 |
| CCCAAGCAAUAUUACGAUCG | -3.46 ± 0.19 | -2.93 ± 0.19 |
| CCCAAGCAAUAUUACGAUGG | -2.89 ± 0.13 | -1.99 ± 0.13 |
| CCCAAGCAAUAUUACGCAUG | -3.29 ± 0.2 | -2.34 ± 0.22 |
| CCCAAGCAAUAUUACGCCGG | -3.22 ± 0.29 | -2.35 ± 0.32 |
| CCCAAGCAAUAUUACGCGUG | -3.31 ± 0.12 | -3.1 ± 0.18 |
| CCCAAGCAAUAUUACGGAGA | – | -1.03 ± 0.17 |
| CCCAAGCAAUAUUACGGCAU | -3.63 ± 0.16 | -2.84 ± 0.17 |
| CCCAAGCAAUAUUACGGGGC | -4.7 ± 0.39 | -3.08 ± 0.27 |
| CCCAAGCAAUAUUACGGUCG | -2.3 ± 0.094 | -0.827 ± 0.094 |
| CCCAAGCAAUAUUACGUAAU | -4.69 ± 0.17 | -2.97 ± 0.19 |
| CCCAAGCAAUAUUACGUCCG | -3.6 ± 0.43 | -2.45 ± 0.3 |
| CCCAAGCAAUAUUACGUGAU | -3.67 ± 0.13 | -2.45 ± 0.16 |
| CCCAAGCAAUAUUACGUUUU | -3.95 ± 0.18 | -3.26 ± 0.2 |
| CCCCAGCAAUAUUACGACCA | -2.81 ± 0.18 | -1.43 ± 0.16 |
